The source of these data is US20250313627A1 (FUSE BIOTHERAPEUTICS, published 2025).

Experiment [1] deals with T1, human ROR1 (Receptor Tyrosine Kinase-Like Orphan Receptor 1) on the cell surface (human, UniProt Q01973 30-937). The experiment is described as follows: cell-based or functional assay.
The target in experiment [2] is T1, human ROR1 (Receptor Tyrosine …). The experiment is described as follows: flow cytometry on ROR1+ MDA-MB-231 cells, secondary antibody to the IgG1 Fc; table row 'Binding EC50 (nM)', the graph's axis reads 'Concentration (pM)'.
In the next experiment the target is T2, human CD3 on T cells (human, UniProt P07766 23-207; P09693 23-182; P04234 22-171; P20963 22-164).
T2 construct: whole, on cells; also called human CD3 on Jurkat T cells; human CD3 on T cells isolated from human PBMC
T2 sequence (P07766 23-207, chain 1 of 4): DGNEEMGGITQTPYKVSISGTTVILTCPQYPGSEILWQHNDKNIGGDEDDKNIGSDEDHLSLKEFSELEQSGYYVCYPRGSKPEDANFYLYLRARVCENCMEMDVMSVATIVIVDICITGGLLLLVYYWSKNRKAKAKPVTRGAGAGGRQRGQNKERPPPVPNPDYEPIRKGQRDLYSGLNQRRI
T2 sequence (P09693 23-182, chain 2 of 4): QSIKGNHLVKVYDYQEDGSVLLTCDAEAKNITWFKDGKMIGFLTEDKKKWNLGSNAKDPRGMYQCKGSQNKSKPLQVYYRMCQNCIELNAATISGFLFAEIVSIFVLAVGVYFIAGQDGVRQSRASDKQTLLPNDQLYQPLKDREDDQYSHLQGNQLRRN
T2 sequence (P04234 22-171, chain 3 of 4): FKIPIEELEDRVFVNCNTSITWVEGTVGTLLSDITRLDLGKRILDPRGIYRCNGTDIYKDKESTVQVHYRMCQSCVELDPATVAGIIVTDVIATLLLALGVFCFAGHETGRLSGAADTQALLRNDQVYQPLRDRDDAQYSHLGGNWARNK
T2 sequence (P20963 22-164, chain 4 of 4): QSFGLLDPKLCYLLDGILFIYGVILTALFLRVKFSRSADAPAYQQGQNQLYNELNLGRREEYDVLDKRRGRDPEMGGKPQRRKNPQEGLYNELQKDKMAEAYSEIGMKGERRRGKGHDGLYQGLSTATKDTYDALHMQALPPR
Kind of experiment: flow cytometry on CD3+ Jurkat NFAT Lucia cells, secondary antibody to the IgG1 Fc.

T1 sequence (Q01973 30-937): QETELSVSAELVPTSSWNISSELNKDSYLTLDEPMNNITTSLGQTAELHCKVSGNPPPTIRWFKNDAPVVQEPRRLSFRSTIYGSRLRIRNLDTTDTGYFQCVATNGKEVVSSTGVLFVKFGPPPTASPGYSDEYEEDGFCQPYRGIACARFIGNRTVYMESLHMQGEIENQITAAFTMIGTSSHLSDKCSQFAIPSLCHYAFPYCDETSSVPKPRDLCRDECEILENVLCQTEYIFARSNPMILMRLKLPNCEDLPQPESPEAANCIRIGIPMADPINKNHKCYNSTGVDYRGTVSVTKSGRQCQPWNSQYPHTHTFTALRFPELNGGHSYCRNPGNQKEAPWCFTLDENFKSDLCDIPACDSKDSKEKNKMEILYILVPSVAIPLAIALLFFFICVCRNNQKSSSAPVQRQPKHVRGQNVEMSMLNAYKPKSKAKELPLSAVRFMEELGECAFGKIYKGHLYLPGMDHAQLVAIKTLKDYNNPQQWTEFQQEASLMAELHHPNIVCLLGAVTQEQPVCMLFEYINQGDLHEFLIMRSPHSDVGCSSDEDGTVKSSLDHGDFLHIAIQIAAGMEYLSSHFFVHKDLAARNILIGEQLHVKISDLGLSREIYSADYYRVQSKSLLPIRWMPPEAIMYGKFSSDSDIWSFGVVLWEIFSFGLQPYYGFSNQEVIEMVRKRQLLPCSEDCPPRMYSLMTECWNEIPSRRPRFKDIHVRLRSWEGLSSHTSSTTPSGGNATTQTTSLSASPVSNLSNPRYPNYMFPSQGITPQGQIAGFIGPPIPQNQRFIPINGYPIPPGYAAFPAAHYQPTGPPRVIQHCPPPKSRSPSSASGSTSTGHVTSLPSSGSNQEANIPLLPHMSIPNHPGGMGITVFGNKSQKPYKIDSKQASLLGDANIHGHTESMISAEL

B1: FUSE608 (humanized CD3 clone 1F3.3 x humanized clone 5A1-FA9-HK1) (bispecific antibody)
heavy: EVQLVESGGGLVQPGGSLRLSCAASGFTFSTYAMNWVRQAPGKGLEWVARIRSKYNNYATYYADSVKDRFTISRDDSKNTLYLQMNSLRAEDTAVYYCARHGNFGNSYVSWFAYWGQGTMVTVSSASTKGPSVFPLAPSSKSTSGGTAALGCLVKDYFPEPVTVSWNSGALTSGVHTFPAVLQSSGLYSLSSVVTVPSSSLGTQTYICNVNHKPSNTKVDKKVEPKSCDKTHTCPPCPAPEAAGGPSVFLFPPKPKDTLMISRTPEVTCVVVDVSHEDPEVKFNWYVDGVEVHNAKTKPREEQYNSTYRVVSVLTVLHQDWLNGKEYKCKVSNKALPAPIEKTISKAKGQPREPQVYTLPPSREEMTKNQVSLSCAVKGFYPSDIAVEWESNGQPENNYKTTPPVLDSDGSFFLVSKLTVDKSRWQQGNVFSCSVMHEALHNRFTQKSLSLSPGK
VHH-Fc: EVQLLESGGGLVQPGGSLRLSCTASGYTNRLKCMGWFRQAPGKEREEIASISTGTGNTYYADSVKGRFTISRDKSRNTLYLQMNTLRAEDTAVYYCAADVRPHGTTCHYNSRGQGTQVTVSSEPKSSDKTHTCPPCPAPEAAGGPSVFLFPPKPKDTLMISRTPEVTCVVVDVSHEDPEVKFNWYVDGVEVHNAKTKPREEQYNSTYRVVSVLTVLHQDWLNGKEYKCKVSNKALPAPIEKTISKAKGQPREPQVYTLPPSREEMTKNQVSLWCLVKGFYPSDIAVEWESNGQPENNYKTTPPVLDSDGSFFLYSKLTVDKSRWQQGNVFSCSVMHEALHNHYTQKSLSLSPGK
light: QAVVTQEPSLTVSPGGTVTLTCRSSTGAVTTSNYANWVQQKPGQAPRGLIGGTNKRAPGTPARFSGSLLGGKAALTLSGVQPEDEAEYYCALWYSNLWVFGGGTKLTVLGQPKAAPSVTLFPPSSEELQANKATLVCLISDFYPGAVTVAWKADSSPVKAGVETTTPSKQSNNKYAASSYLSLTPEQWKSHRSYSCQVTHEGSTVEKTVAPTECSGGGGSGGGGSGGGGSGGGGSEVQLLESGGGLVQPGGSLRLSCTASGYTNRLKCMGWFRQAPGKEREEIASISTGTGNTYYADSVKGRFTISRDKSRNTLYLQMNTLRAEDTAVYYCAADVRPHGTTCHYNSRGQGTQVTVSS
As for B1, the “fold decrease in T cell mediated IFNγ release with ROR1+ MDA-MB-231, potency against FUSE399” value in experiment [1] is around 25 fold. Besides, the EC50 in experiment [2] came to 2.9 nM; with human CD3 on T cells, 8.18 nM.
